Assay [1] concerns the target guinea pig whole molecule IgG (guinea pig). Put plainly: SPR; IgG amine coupled to CM5 chip, control flowed at 490 ug/ml at the end of the serial flows; end-point RU of association phase. A general note: Surface plasmon resonance follows binding to a sensor surface in real time, without labels.
In assay [2] the target is human IgG Fc (human). The assay is described as above.
The target of assay [3] is human whole molecule IgG (human). The assay is described as above.
For assay [4], the target named is mouse whole molecule IgG (mouse). Described as above.
The target of assay [5] is rabbit whole molecule IgG (rabbit). The description is as above.
For assay [6], the target named is human IgG Fc (human). The assay is described as follows: SPR; IgG amine-coupled to CM5 chip, control flowed at 490 ug/ml at the end of the serial flows; end-point RU of association phase.
The target in assay [7] is human whole molecule IgG (human). The description is as above.
Assay [8] concerns the target rabbit whole molecule IgG (rabbit). The assay is described as above.
For assay [9], the target named is human IgG Fc (human). The description is as above. This is another data set of the same source.
Assay [10] has as its target human whole molecule IgG (human). The description is as above. The source holds these as a separate data set.
Assay [11] addresses rabbit whole molecule IgG (rabbit). The description is as above. The source holds these as a separate data set.
For assay [12], the target named is guinea pig whole molecule IgG (guinea pig). The assay is described as follows: SPR; IgG amine coupled to CM5 chip, control flowed at 490 ug/ml at the start of the serial flows; end-point RU of association phase.
The target in assay [13] is human IgG Fc (human). The description is as above.
Assay [14] addresses human whole molecule IgG (human). The assay is described as above.
In assay [15] the target is mouse whole molecule IgG (mouse). The description is as above.
Assay [16] addresses rabbit whole molecule IgG (rabbit). The description is as above.
Assay [17] addresses human whole molecule IgG (human). The assay is described as follows: SPR; IgG amine-coupled to CM5 chip, control flowed at 490 ug/ml at the start of the serial flows; end-point RU of association phase.
The target of assay [18] is rabbit whole molecule IgG (rabbit). The description is as above.
For assay [19], the target named is human IgG Fc (human). Described as above.
Assay [20] concerns the target human whole molecule IgG (human). The description is as above. The source holds these as a separate data set.
For assay [21], the target named is rabbit whole molecule IgG (rabbit). The assay is described as above. This is another data set of the same source.
Assay [22] addresses guinea pig whole molecule IgG (guinea pig). The assay is described as follows: SPR; IgG amine coupled to CM5 chip, construct flowed at 750 ug/ml; end-point RU of association phase.
The target of assay [23] is human IgG Fc (human). Described as above.
The target in assay [24] is human whole molecule IgG (human). The description is as above.
For assay [25], the target named is mouse whole molecule IgG (mouse). Described as above.
Assay [26] addresses rabbit whole molecule IgG (rabbit). Described as above.

B1: gE-1t 411 (protein)
chain: GTPKTSWRRVSVGEDVSLLPAPGPTGRGPTQKLLWAVEPLDGCGPLHPSWVSLMPPKQVPETVVDAACMRAPVPLAMAYAPPAPSATGGLRTDFVWQERAAVVNRSLVIHGVRETDSGLYTLSVGDIKDPARQVASVVLVVQPAPVPTPPPTPADYDEDDNDEGEDESLAGTPASGTPRLPPPPAPPRSWPSAPEVSHVRGVTVRMETPEAILFSPGETFSTNVSIHAIAHDDQTYSMDVVWLRFDVPTSCAEMRIYESCLYHPQLPECLSPADAPCAASTWTSRLAVRSYAGCSRTNPPPRCSAEAHMEPVPGLAWQAASVNLEFRDASPQHSGLYLCVVYVNDHIHAWGHITISTAAQYRNAVVEQPLPQRGADLAEPTHPHVGAPPHA
Turning to B1, the RU Post Association is 30 RU in assay [1]; 72 RU in the assay with human IgG Fc (human) [2]; 144 RU in [3]; 8 RU in [4]; 223 RU in [5]; 75 RU in the assay with human IgG Fc (human) [6]. Besides, the RU Post Association in assay [7] is 150 RU; in assay [8], 221 RU; with human IgG Fc (human) [9], 76 RU; in assay [10] it was 152 RU; in assay [11] it was 228 RU; in [12] it was 32 RU. Moreover, the RU Post Association was 77 RU with human IgG Fc (human) [13]; 147 RU in assay [14]; 4 RU in assay [15]; 231 RU in assay [16]; 145 RU in assay [17]; 221 RU in assay [18]. The RU Post Association was 80 RU with human IgG Fc (human) [19], 157 RU in assay [20] and 228 RU in assay [21].

B2: gE-1t 419 (protein)
chain: GTPKTSWRRVSVGEDVSLLPAPGPTGRGPTQKLLWAVEPLDGCGPLHPSWVSLMPPKQVPETVVDAACMRAPVPLAMAYAPPAPSATGGLRTDFVWQERAAVVNRSLVIHGVRETDSGLYTLSVGDIKDPARQVASVVLVVQPAPVPTPPPTPADYDEDDNDEGEDESLAGTPASGTPRLPPPPAPPRSWPSAPEVSHVRGVTVRMETPEAILFSPGETFSTNVSIHAIAHDDQTYSMDVVWLRFDVPTSCAEMRIYESCLYHPQLPECLSPADAPCAASTWTSRLAVRSYAGCSRTNPPPRCSAEAHMEPVPGLAWQAASVNLEFRDASPQHSGLYLCVVYVNDHIHAWGHITISTAAQYRNAVVEQPLPQRGADLAEPTHPHVGAPPHAPPTHGALR
In the case of B2, the RU Post Association amounted to 27 RU in [22]; 69 RU with human IgG Fc (human) [23]; 127 RU in assay [24]; 4 RU in assay [25]; 188 RU in assay [26].

These data come from US20220280636A1.
